According to patent US20100129373A1:

How the values were obtained:
[1] = target: recombinant mouse VEGF (493-MV, R&D systems, USA) (mouse) (UniProt Q00731); experiment: ELISA, Ab 1.56 nM
[2] = target: recombinant mouse VEGF (493-MV, R&D systems, USA) (mouse) (UniProt Q00731); experiment: ELISA, Ab 0.20 nM
[3] = target: recombinant mouse VEGF (493-MV, R&D systems, USA) (mouse) (UniProt Q00731); experiment: ELISA, Ab 0.049 nM
[4] = target: recombinant mouse VEGF (493-MV, R&D systems, USA) (mouse) (UniProt Q00731); experiment: ELISA, Ab 0.39 nM
[5] = target: recombinant mouse VEGF (493-MV, R&D systems, USA) (mouse) (UniProt Q00731); experiment: ELISA, Ab 0.78 nM
[6] = target: recombinant mouse VEGF (493-MV, R&D systems, USA) (mouse) (UniProt Q00731); experiment: ELISA, Ab 0.10 nM
[7] = target: recombinant mouse VEGF (493-MV, R&D systems, USA) (mouse) (UniProt Q00731); experiment: ELISA, Ab 50 nM
[8] = target: recombinant mouse VEGF (493-MV, R&D systems, USA) (mouse) (UniProt Q00731); experiment: ELISA, Ab 6.25 nM
[9] = target: recombinant mouse VEGF (493-MV, R&D systems, USA) (mouse) (UniProt Q00731); experiment: ELISA, Ab 25 nM
[10] = target: recombinant mouse VEGF (493-MV, R&D systems, USA) (mouse) (UniProt Q00731); experiment: ELISA, Ab 12.5 nM
[11] = target: recombinant mouse VEGF (493-MV, R&D systems, USA) (mouse) (UniProt Q00731); experiment: ELISA, Ab 3.13 nM
[12] = target: T1, recombinant mouse VEGF (493-MV, R&D systems, USA) (mouse) (UniProt Q00731); experiment: ELISA, control IgG 50 nM
T1 sequence (looked up): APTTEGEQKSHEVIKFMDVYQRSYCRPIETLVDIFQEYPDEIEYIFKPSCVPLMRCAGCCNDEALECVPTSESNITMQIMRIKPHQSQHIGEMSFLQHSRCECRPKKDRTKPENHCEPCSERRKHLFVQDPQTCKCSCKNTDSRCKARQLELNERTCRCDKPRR

[13] = target: recombinant human VEGF (293-VE, R&D systems, USA) (human) (UniProt P15692); experiment: ELISA, control IgG 50 nM

| OD490 [1] | OD490 [2] | OD490 [3] | OD490 [4] | OD490 [5] | OD490 [6] | OD490 [7] | OD490 [8] | OD490 [9] | OD490 [10] | OD490 [11] | OD490 [12] | OD490 [13] | Substance |
| --- | --- | --- | --- | --- | --- | --- | --- | --- | --- | --- | --- | --- | --- |
| 0.0455 | 0.0433 | 0.0687 | 0.0569 | 0.0438 | 0.147 | 0.695 | 0.0424 | 0.107 | 0.104 | 0.0489 | – | – | Avastin™ (bevacizumab, Genetech), humanized anti-VEGF monoclonal antibody |
| – | – | – | – | – | – | – | – | – | – | – | 0.0467 | 0.052 | normal human IgG (antibody) |
